Data taken from PMC5679609 (PLoS ONE, 2017).

Biological target: T1, Tiam1 (human (endogenous in MCF-7), UniProt Q13009 1-1591)
T1 construct: also called Rac1-GEF; source: endogenous, MCF-7 lysate
Assay: co-IP; anti-Tiam1 antibody, lysates of nt MCF-7 and of the lines that stably express the SDC4 constructs; Mg2+-lysis buffer (25 mM HEPES pH 7.5, 150 mM NaCl, 1% Igepal CA-630, 5 mM MgCl2, 1 mM EDTA, 2% glycerol); blot with anti-GFP-HRP or anti-Rac1
Details: partners not purified

T1 sequence (Q13009 whole entry): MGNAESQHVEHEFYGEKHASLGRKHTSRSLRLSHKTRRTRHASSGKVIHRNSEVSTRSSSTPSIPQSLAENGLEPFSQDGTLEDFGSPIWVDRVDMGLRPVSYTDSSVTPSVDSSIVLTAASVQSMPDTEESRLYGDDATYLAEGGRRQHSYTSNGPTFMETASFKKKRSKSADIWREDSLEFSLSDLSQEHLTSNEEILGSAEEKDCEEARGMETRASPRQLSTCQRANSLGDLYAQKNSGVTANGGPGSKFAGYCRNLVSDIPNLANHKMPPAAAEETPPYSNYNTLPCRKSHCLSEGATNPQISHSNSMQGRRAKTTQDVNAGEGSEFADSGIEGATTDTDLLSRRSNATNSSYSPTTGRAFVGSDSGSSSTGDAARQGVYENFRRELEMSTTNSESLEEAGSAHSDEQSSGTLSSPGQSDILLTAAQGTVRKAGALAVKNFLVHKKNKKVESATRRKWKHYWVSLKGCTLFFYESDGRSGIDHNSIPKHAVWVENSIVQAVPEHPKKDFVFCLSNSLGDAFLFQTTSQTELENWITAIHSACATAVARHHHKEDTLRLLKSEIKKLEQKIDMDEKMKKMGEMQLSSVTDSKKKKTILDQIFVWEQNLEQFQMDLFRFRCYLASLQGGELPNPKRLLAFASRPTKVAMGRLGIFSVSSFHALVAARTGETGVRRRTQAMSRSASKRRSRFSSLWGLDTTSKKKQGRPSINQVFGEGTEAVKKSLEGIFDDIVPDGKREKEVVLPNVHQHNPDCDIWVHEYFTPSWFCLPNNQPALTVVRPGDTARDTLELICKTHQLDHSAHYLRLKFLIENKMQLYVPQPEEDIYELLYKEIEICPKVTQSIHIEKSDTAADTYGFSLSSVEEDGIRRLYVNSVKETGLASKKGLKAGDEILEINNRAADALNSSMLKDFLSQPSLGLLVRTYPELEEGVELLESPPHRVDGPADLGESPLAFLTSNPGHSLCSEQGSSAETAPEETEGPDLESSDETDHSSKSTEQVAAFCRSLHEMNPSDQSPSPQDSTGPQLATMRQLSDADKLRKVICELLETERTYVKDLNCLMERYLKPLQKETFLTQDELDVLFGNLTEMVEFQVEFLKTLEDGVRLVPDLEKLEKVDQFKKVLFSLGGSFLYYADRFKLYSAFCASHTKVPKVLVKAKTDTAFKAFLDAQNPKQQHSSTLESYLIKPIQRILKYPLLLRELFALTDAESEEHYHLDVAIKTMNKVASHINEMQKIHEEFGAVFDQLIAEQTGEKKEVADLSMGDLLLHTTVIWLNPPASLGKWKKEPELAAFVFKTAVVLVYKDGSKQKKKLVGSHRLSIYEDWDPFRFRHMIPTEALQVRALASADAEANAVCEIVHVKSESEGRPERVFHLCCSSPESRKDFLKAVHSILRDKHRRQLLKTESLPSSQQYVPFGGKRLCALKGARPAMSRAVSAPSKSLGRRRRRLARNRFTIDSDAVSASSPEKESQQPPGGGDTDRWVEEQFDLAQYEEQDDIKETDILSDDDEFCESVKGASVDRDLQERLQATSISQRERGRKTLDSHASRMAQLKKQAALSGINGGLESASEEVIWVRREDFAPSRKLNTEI

B1: Ser179Glu SDC4 (phosphomimetic), with GFP in the extracellular domain (natural protein, human, UniProt P31431 19-198, looked up)
chain: ESIRETEVIDPQDLLEGRYFSGALPDDEDVVGPGQESDDFELSGSGDLDDLEDSMIGPEVVHPLVPLDNHIPERAGSGSQVPTEPKKLEENEVIPKRISPVEESEDVSNKVSMSSTVQGSNIFERTEVLAALIVGGIVGILFAVFLILLLMYRMKKKDEGEYDLGKKPIYKKAPTNEFYA
notes: syndecan-4 (SDC4), human, GenBank CAG46871.1; GFP inserted into the extracellular domain at position 131; also called phosphomimetic SDC4; source: MCF-7, stably transfected, in lysate; not shown: GFP, internal (at position 131), kept
fold binding against the non-phosphorylated SDC4: ~10 fold
